Laboratory results published in PMC12043514 (Nature, 2024).

What was measured:
cryo-EM structure = molecular target: the molecule itself; experiment: cryo-EM structure
[1] = molecular target: SV40 large tumour antigen (LTag) helicase hexamer (Simian virus 40, UniProt P03070 1-708); experiment: cryo-EM

| Binder | stoichiometry N (cryo-EM structure) | binding result [1] |
| --- | --- | --- |
| simian virus 40 large tumour antigen (LTag) helicase (enzyme) MDKVLNREESLQLMDLLGLERSAWGNIPLMRKAYLKKCKEFHPDKGGDEEKMKKMNTLYKKMEDGVKYAHQPDFGGFWDATEIPTYGTDEWEQWWNAFNEENLFCSEEMPSSDDEATADSQHSTPPKKKRKVEDPKDFPSELLSFLSHAVFSNRTLACFAIYTTKEKAALLYKKIMEKYSVTFISRHNSYNHNILFFLTPHRHRVSAINNYAQKLCTFSFLICKGVNKEYLMYSALTRDPFSVIEESLPGGLKEHDFNPEEAEETKQVSWKLVTEYAMETKCDDVLLLLGMYLEFQYSFEMCLKCIKKEQPSHYKYHEKHYANAAIFADSKNQKTICQQAVDTVLAKKRVDSLQLTREQMLTNRFNDLLDRMDIMFGSTGSADIEEWMAGVAWLHCLLPKMDSVVYDFLKCMVYNIPKKRYWLFKGPIDSGKTTLAAALLELCGGKALNVNLPLDRLNFELGVAIDQFLVVFEDVKGTGGESRDLPSGQGINNLDNLRDYLDGSVKVNLEKKHLNKRTQIFPPGIVTMNEYSVPKTLQARFVKQIDFRPKDYLKHCLERSEFLLEKRIIQSGIALLLMLIWYRPVAEFAQSIQSRIVEWKERLDKEFSLSVYQKMKFNVAMGIGVLDWLRNSDDDDEDSQENADKNEDGGEKNMEDSGHETGIDSQSQGSFQAPQSSQSVHDHNQPYHICRGFTCFKKPPTPPPEPET | 6 |  |
| gap DNA substrate without free 3' ssDNA tail (mixed, 3' terminal dideoxy-C ([23ddC]) on strand 1) DNA 1: AGCTATGACCATGATTACGAATTGC DNA 2: TTTTTCGGAGTCGTTTCGACTCCGATTTTTTTTTTTTTTTTTTTTTTTTTTTTTTTTTTTTTTTTTTTTTGCAATTCGTAATCATGGTCATAGCT |  | no binding |
